Substitutions are numbered along the chain they refer to.

Assay [1] has as its target IL-1RI on HEK-Blue IL-1β responsive cells (UniProt P14778).
In assay [2] the target is T1, soluble recombinant human IL-1RI (corresponding to the extracellular domain of IL-1RI) (human, UniProt P14778 18-336).
T1 construct: extracellular domain
T1 sequence (looked up): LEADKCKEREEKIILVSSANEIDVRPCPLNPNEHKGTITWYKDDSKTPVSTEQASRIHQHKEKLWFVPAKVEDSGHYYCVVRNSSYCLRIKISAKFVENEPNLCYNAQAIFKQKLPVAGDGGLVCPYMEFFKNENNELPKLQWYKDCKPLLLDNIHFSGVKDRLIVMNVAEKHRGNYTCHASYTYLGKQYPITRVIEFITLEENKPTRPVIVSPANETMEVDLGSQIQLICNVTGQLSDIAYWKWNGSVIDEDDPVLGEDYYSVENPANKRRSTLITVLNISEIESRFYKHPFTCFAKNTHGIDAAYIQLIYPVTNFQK
In words: SPR (Reichert SR7000DC), soluble recombinant human IL-1RI, PBS with 0.005% Tween 20. As to the method: The binding properties of proteins for soluble recombinant human IL-1RI (corresponding to the extracellular domain of IL-1RI) were evaluated using surface plasmon resonance with a Reichert SR7000DC Dual Channel SPR system. Binding was evaluated in phosphate buffered saline with 0.005% Tween 20. […] Thus, the P01 protein bound to IL-1RI with a greater affinity than did IL-1β under similar conditions.

Assay [3] has as its target T2, IL-1RI on HEK-Blue IL-1β responsive cells (UniProt P14778 18-569).
T2 sequence (looked up): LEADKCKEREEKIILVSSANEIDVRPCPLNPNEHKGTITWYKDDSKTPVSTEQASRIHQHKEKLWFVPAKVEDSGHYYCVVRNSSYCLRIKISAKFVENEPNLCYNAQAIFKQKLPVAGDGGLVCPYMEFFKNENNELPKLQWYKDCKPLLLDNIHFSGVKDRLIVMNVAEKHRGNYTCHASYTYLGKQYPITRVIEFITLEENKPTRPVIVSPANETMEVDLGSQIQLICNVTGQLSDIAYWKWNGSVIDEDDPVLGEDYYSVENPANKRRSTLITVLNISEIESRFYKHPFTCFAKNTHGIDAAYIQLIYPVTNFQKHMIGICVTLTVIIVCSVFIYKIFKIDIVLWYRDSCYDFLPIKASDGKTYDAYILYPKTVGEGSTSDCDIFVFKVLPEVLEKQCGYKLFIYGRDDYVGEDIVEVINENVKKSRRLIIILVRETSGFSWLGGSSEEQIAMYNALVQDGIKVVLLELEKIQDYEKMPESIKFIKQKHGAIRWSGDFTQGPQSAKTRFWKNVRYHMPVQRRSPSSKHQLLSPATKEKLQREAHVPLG
In words: cell-based or functional assay.

Assay [4] addresses T2, IL-1RI on HEK-Blue IL-1β responsive …. In words: cell-based or functional assay. The source holds these as a separate data set.
Assay [5] shares this target. The assay is described as follows: cell-based or functional assay. This is another data set of the same source.

Molecule GUS (enzyme) came in with an OD650 (SEAP reporter of HEK-Blue IL-1β cells, agonism test, negative control; amount of protein not given) in assay [1] of 0.06 OD650.

B1: P01 (designed binder)
chain: APVRSLAFRIWDVNQKTFYLRNNQLVAGYLQGPNVNLEEKIDVSFVQGEESNDKIPVALGIHGGKMCLSCVKSGDETRLQLEAVDPKNYPKKKMDKRFAFIRSDSGPTTSFESAACPGWFLCTAMEADQPVSLTNMPDEGVMVTKFYMQFVSS
notes: Expressed in E. coli; In the cell assay, supernatants or lysates containing P01 were used; also called chimeric cytokine domain P01
As for B1, in assay [2], the Kd is 0.47 nM, the koff was 2.32e-05 s⁻¹ and the kon stood at 49300 M⁻¹ s⁻¹. Moreover, the “OD650 (SEAP reporter of HEK-Blue IL-1β cells, agonism test, protein alone; amount of protein not given)” value in assay [3] was found to be 0.061 OD650. Also, in assay [4], the “IC50 (read off the curve); HEK-Blue IL-1β SEAP reporter, IL-1β 0.1 ng/ml, lysate with untagged P01, concentration estimated” value was approximately 1 ng/mL.

B2: P02 (designed binder)
chain: APVRSLAFRIWDVNQKTFYLRNNQLVAGYLQGPNVNLEEKIDVSFVQGEESNDKIPVALGIHGGKMCLSCVKSGDETRLQLEAVDPKNYPKKKMEKRFVFNKIEINNKLSFESAACPGWFLCTAMEADQPVSLTNMPDEGVMVTKFYMQFVSS
notes: Expressed in E. coli; also called chimeric cytokine domain P02
Consider B2, for which, in assay [2], the Kd is 0.636 nM, the koff was 2.16e-05 s⁻¹ and the kon was 33900 M⁻¹ s⁻¹. Moreover, in assay [4], the “IC50 (read off the curve); HEK-Blue IL-1β SEAP reporter, IL-1β 0.1 ng/ml, lysate with untagged P02, concentration estimated” value was approximately 1 ng/mL.

B3: P04 (designed binder)
chain: APVRSLAFRIWDVNQKTFYLRNNQLVAGYLQGPNVNLEEKFSMSFVQGEESNDKIPVALGLKEKNLYLSCVLKDDKPTLQLESVDPKNYPKKKMEKRFVFNKIEINNKLEFESAACPGWFLCTAMEADQPVSLTNMPDEGVMVTKFTMQFVSS
notes: Expressed in E. coli; also called chimeric cytokine domain P04
Turning to B3, in assay [2], the Kd was 1.71 nM. Besides, the “IC50 (read off the curve); HEK-Blue IL-1β SEAP reporter, IL-1β 0.1 ng/ml, lysate with untagged P04, concentration estimated” value in assay [4] was approximately 6 ng/mL.

B4: P05 (designed binder)
chain: B3 chain with A7N, F8C, A115Q, C116F, G118N, T147Y
notes: Expressed in E. coli; also called EBI-005; chimeric cytokine domain P05
As for B4, in assay [2], the Kd is 0.012 nM, the koff came to 4.15e-05 s⁻¹ and the kon was 3.47e+06 M⁻¹ s⁻¹. Also, the “IC50, antagonism of IL-1β activity in the HEK-Blue IL-1β SEAP reporter assay” value in assay [5] is less than 5 ng/mL.

B5: P07 (designed binder)
chain: B3 chain with A7N, F8C, A115Q, C116F, G118N, V141Q, M142D, V143I, K145D
notes: Expressed in E. coli
Take B5: in assay [2], the Kd was found to be 92.6 nM, the koff came out at 0.00146 s⁻¹ and the on-rate constant (kon) came to 15800 M⁻¹ s⁻¹. Further, the “OD650 (SEAP reporter of HEK-Blue IL-1β cells, agonism test, protein alone; amount of protein not given)” value in assay [3] was found to be 0.222 OD650.

B6: P03 (designed binder)
chain: B3 chain with N101I, K102R, I103S, E104D, I105S, N106G, N107P, K108T, L109T, E110S
notes: Expressed in E. coli; also called chimeric cytokine domain P03
With B6, in assay [2], the Kd came out at 0.29 nM, the koff was found to be 0.0012 s⁻¹ and the kon was 4.1e+06 M⁻¹ s⁻¹. For the same molecule, the “IC50 (read off the curve); HEK-Blue IL-1β SEAP reporter, IL-1β 0.1 ng/ml, lysate with untagged P03, concentration estimated” value in assay [4] is approximately 2 ng/mL.

B7: P06 (designed binder)
chain: APVRSLNCTLWDVNQKTFYLRNNQLVAGYLQGPNVEQQVVFSMSFVQGEESNDKIPVALGLKEKNLYLSCVLKDDKPTLQLESVDPKNYPKKKMEKRFVFNKIEINNKLEFESAQFPNWYISTSMEADQPVFLGGTKGGQDITDFTMQFVSS
notes: Expressed in E. coli
With B7, in assay [2], the Kd was determined as 0.41 nM, the koff stood at 0.0017 s⁻¹ and the kon is 4.8e+06 M⁻¹ s⁻¹. The “OD650 (SEAP reporter of HEK-Blue IL-1β cells, agonism test, protein alone; amount of protein not given)” value in assay [3] was determined as 1.78 OD650.

The values above are taken from patent US20140308239A1 (ELEVEN BIOTHERAPEUTICS, published 2014).
